This passage reports stoichiometry N results from publication PMC6274866.

For experiment [1], the target named is STIM2-2β-OASF (residues 238–504 containing the naturally occurring VAASYLIQ insertion after E383) (human). The experiment in a line: SEC-MALS; 1 mg/mL protein injected on Superdex 200 Increase 10/300 GL at 10 °C; 20 mM TRIS, 300 mM NaCl, 1 mM DTT, pH 8.0; without CaCl2; stoichiometric ratio = MALS molecular weight / theoretical monomer mass. (In general: In gel filtration, larger molecules generally elute earlier.)

Experiment [2] shares this target. As to the kind of experiment: SEC-MALS; 1 mg/mL protein injected on Superdex 200 Increase 10/300 GL at 10 °C; 20 mM TRIS, 300 mM NaCl, 1 mM DTT, pH 8.0; with 25 mM CaCl2; stoichiometric ratio = MALS molecular weight / theoretical monomer mass.

Sequence of STIM2-2β-OASF (residues 238–504 containing the naturally occurring VAASYLIQ insertion after E383) (domain or fragment) (Q9P246 238-504): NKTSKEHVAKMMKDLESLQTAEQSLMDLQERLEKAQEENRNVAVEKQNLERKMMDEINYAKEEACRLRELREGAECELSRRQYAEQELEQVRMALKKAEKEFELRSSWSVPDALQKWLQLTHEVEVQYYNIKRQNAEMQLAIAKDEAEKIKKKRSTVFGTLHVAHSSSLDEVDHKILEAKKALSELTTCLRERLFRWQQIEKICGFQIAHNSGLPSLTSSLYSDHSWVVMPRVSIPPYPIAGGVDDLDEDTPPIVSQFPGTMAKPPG

What is called stoichiometry N is the number of molecules, sites or subunits per partner or assembly. With “STIM2-2β-OASF (residues 238–504 containing the naturally occurring VAASYLIQ insertion after E383) (domain or fragment)”, the values for the stoichiometry N in experiment [1] and in experiment [2] were 1.96 and 1.97, respectively.
